{
  "source": "patent US11753479B2",
  "about": "“Nucleic acids encoding anti-OX40L antibodies” (Kymab Limited, priority 2014, dated 2023)",
  "data": [
    {"molecular_target": "T1, hOX40L expressed on CHO-S cells (Homo sapiens, UniProt P23510)", "T1 construct": "expressed in transfected cells", "T1 sequence (P23510 1-183)": "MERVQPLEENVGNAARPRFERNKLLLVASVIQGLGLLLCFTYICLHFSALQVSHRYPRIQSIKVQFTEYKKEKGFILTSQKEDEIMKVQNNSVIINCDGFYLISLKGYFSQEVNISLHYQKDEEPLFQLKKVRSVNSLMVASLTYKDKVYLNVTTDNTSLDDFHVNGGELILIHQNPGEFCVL", "test": "Binding to CHO-S expressed hOX40L (FACS)", "details": "binding to CHO-S expressed hOX40L by FACS", "description": "To determine whether wells selected using the primary screen selection criteria had the required characteristics set by the inventors, a number of assays were performed. Hybridoma clones selected as hits from primary screening were cultured for 3 days and the supernatants collected from hybridoma cells were tested to assess whether the secreted antibodies that bind to CHO-S expressed hOX40L, in some case bind to untransfected CHO-S cells and whether they neutralise recombinant OX40R Fc binding to CHO-S hOX40L and ability to neutralise OX40R binding to recombinant biotinylated hOX40L.\nCHO-S cells expressing hOX40L or untransfected CHO-S cells, diluted in FACS buffer (PBS+1% w/v BSA+0.1% w/v NaN3) were distributed to a 96 well V-bottom plate (Greiner) at a density of 1×10^5 cells per well. Cells were washed with 150 μL of PBS and centrifuged at 300×g for 3 min. Supernatant was aspirated and 150 μL of PBS added. This wash step was repeated.\n25 μL of hybridoma supernatant or purified antibody from hybridoma supernatant diluted in FACS buffer was added to the washed cells and incubated for 10-15 minutes. Reference Antibody or mouse IgG1 control antibody (Sigma) were diluted in FACS buffer to 20 μg/mL and 25 μL added to cells. 25 μL of human OX40R Fc (in-house) diluted to 1000 ng/mL in FACS buffer were then added to wells. Cells were incubated at 4° C. for 30 minutes.\nCells were washed twice with 150 μL of PBS centrifuging after each wash step and aspirating supernatant (centrifuged at 300×g for 3 minutes). […]\nTo fix cells 100 μL 2% v/v paraformaldehyde was added and cells incubated for 30 minutes at 4° C., cells were pelleted by centrifugation 300×g and the plates and resuspended in 50 μL of FACS buffer. PE and APC signal intensity (geomean) was measured by flow cytometry using a BD FACS Array instrument.\n% of control binding was calculated using geomean fluorescence as described in equation 1 where total binding was defined as reference antibody at 10 μg/mL and non-specific binding as mouse IgG1 antibody at 10 μg/mL. % receptor binding was calculated using Equation 3. […]", "values": [
      {"molecule": "10A07 (hybridoma): murine/human chimeric anti-OX40L antibody 10A07 purified from hybridoma supernatant (antibody, V domains shown) VH: EVQLVESGGVLVQPGGSLRLSCAASGFTFSSYIMTWVRQAPGKGLEWVSGISGSGGGTYYADSMKGRFTISRDNSKNTLYLQMNSLRVEDTAVYYCAKDRLGPITLVRGGYYYGMDVWGQGTTVTVSS VL: DIQMTQSPSSLSASVGDRVTITCRASQSISDYLNWYQQKPGKAPKFLIYAASSLQSGVPSRFSGSGSGTDFTLTVSSLQPEDFATYYCQQSYSTPRTFGQGTRVEIK", "FACS Binding": "YES"},
      {"molecule": "2D10 (hybridoma): murine/human chimeric anti-OX40L antibody 2D10 purified from hybridoma supernatant (antibody, V domains shown) VH: EVQLVESGGGLVQPGGSLRLSCAASGFTFSNYAMNWVRQAPGKGLEWVSTISGSGGATRYADSVKGRFTISRDNSRNTVYLQMNSLRVEDTAVFYCTKDRLIMATVRGPYYYGMDVWGQGTTVTVSS VL: DIQMTQSPSSLSASVGDRVTITCRASQSISSYLNWYQQKPGKAPNLLIYAASSLQSGVPSRFSGSGSETDFTLTISSLQPEDFATYYCQQSHSVSFTFGPGTKVDIK", "FACS Binding": "YES"},
      {"molecule": "9H04 (hybridoma): murine/human chimeric anti-OX40L antibody purified from hybridoma supernatant (protein, listed as Homo Sapiens, VH only; VL and constant regions missing, murine/human chimeric anti-OX40L antibody purified from hybridoma supernatant) QVQLVESGGGLVKPGGSLRLSCAASRFTLSDYYMTWIRQAPGKGLEWVSYISSSGNTIYYADSVKGRFTISRDNAKNSLYLQMNSLRAEDTAVYYCARDLSGSYWDYYYGMDVWGQGTTVTVSS", "FACS Binding": "YES"}
    ]}
  ]
}
